B1: Parkinson disease protein 7 (Homo sapiens), Q99497 (parent)
chain: MASKRALVILAKGAEEMETVIPVDVMRRAGIKVTVAGLAGKDPVQCSRDVVICPDASLEDAKKEGPYDVVVLPGGNLGAQNLSESAAVKEILKEQENRKGLIAAICAGPTALLAHEIGFGSKVTTHPLAKDKMMNGGHYTYSENRVEKDGLILTSRGPGTSFEFALAIVEALNGKEVAAQVKAPLVLKD

Variants of: B1
Conditions: with rack1_human RACK1, P63244

Variant	effect of a mutation on the interaction
C53S	decreasing interaction strength
C106S	disrupting interaction strength
C46S	disrupting interaction strength

From IntAct's records for PubMed 24947010
